This data set deals with the molecule itself. Nature of the data set: non-reducing SDS-PAGE.

The term stoichiometry N denotes the number of molecules, sites or subunits per partner or assembly.

B1: His-tagged Snapin wild-type (natural protein, UniProt Q9Z266 1-136, looked up)
chain: MAAAGSAAVSGAGTPVAGPTGRDLFAEGLLEFLRPAVQQLDSHVHAVRESQVELREQIDNLATELCRINEDQKVALDLDPYVKKLLNARRRVVLVNNILQNAQERLRRLNHSVAKETARRRAMLDSGVYPPGSPSK
In the case of B1, the “stoichiometry N” value came out at 2.
